Among the data in paper PMC8477557 are Kd values, retold here.

The assay addresses CD123 extracellular domain (human (cDNA of L-428 cells)) (UniProt P26951). Briefly: SPR. As to conditions: bispecific antibody.

CD123 extracellular domain (human (cDNA of L-428 cells)), sequence (P26951 19-305): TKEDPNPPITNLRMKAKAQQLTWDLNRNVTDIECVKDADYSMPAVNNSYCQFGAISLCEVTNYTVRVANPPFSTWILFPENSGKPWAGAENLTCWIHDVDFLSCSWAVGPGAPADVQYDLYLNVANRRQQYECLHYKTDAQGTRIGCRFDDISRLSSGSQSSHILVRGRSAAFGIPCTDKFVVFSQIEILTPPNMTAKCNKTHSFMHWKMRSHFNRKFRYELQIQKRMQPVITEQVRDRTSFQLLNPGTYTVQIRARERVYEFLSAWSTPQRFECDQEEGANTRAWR

On to “1 × SIRPα-αCD123 fusion antibody (from UniProt P78324 31-149)”, for which the dissociation constant Kd was 2.74 nM. This lies in the single-digit nanomolar range.
The result for “2 × SIRPα-αCD123 fusion antibody (from UniProt P78324 31-149; P78324 31-149)” reads 2.34 nM.

As a reminder, the Kd is a measure of binding affinity in units of concentration.
